{"source": "paper doi:10.1101/2025.05.23.649291", "about": "(bioRxiv, 2025)", "key": {"[1]": {"target": "T1, human TfR1 fused to EGFP, on CHO-hTfR1-EGFP cells (human, UniProt P02786)", "assay": "flow cytometry on cells"}, "[2]": {"target": "T2, mouse TfR1 fused to EGFP, on CHO-mTfR1-EGFP cells (Mus musculus, UniProt Q62351)", "T2 sequence (Q62351 whole entry, the tested form may be a part)": "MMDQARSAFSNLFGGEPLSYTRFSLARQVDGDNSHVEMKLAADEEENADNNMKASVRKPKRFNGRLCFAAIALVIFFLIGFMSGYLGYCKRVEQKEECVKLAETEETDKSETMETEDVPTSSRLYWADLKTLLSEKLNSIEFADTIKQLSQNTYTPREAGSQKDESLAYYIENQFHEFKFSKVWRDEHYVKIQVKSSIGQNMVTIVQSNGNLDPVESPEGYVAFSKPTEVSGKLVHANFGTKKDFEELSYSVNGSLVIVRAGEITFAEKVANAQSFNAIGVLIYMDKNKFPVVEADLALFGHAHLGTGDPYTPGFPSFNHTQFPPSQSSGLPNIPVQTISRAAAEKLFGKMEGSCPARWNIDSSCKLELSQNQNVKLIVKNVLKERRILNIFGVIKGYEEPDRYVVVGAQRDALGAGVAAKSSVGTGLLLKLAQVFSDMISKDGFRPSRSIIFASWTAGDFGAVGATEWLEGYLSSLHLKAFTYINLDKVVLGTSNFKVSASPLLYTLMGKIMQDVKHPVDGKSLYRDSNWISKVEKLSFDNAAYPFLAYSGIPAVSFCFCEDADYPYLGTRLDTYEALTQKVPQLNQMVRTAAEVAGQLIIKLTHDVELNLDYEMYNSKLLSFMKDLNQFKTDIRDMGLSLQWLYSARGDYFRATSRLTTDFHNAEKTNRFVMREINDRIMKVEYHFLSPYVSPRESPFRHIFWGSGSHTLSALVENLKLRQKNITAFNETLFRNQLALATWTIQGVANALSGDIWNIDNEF", "assay": "immunostaining of cells or tissue"}, "[3]": {"target": "T3, rhesus monkey TfR1 fused to EGFP, on CHO-rhTfR1-EGFP cells (Macaca mulatta, UniProt H9Z2T8)", "assay": "immunostaining of cells or tissue"}, "[4]": {"target": "T3, rhesus monkey TfR1 fused to EGFP, on …", "assay": "flow cytometry on cells"}, "[5]": {"target": "mFc-mouse TfR1 ectodomain (mouse IgG2a Fc fusion) (Mus musculus, UniProt Q62351)", "sequence (Q62351 89-763)": "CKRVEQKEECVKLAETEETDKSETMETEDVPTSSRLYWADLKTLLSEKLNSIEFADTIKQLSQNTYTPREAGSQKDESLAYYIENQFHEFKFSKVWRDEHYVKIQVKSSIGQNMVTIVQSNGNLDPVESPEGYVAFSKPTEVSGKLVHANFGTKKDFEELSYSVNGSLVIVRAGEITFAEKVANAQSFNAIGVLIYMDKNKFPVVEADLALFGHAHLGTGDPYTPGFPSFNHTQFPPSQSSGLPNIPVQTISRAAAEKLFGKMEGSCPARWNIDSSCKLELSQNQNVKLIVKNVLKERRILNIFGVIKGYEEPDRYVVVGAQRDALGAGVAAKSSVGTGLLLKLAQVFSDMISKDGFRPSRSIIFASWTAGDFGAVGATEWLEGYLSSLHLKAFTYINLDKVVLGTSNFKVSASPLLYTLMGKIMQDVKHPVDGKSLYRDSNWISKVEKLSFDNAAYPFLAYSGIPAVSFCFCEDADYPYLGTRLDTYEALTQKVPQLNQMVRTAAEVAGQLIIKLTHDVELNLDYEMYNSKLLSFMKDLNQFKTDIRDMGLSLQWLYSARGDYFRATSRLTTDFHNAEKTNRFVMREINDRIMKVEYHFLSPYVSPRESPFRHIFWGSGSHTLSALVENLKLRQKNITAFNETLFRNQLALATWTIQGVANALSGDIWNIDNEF", "assay": "SPR"}, "[6]": {"target": "mouse NTSR1 fused to GFP, on Expi293 cells (mouse, UniProt O88319)", "sequence (O88319 whole entry, the tested form may be a part)": "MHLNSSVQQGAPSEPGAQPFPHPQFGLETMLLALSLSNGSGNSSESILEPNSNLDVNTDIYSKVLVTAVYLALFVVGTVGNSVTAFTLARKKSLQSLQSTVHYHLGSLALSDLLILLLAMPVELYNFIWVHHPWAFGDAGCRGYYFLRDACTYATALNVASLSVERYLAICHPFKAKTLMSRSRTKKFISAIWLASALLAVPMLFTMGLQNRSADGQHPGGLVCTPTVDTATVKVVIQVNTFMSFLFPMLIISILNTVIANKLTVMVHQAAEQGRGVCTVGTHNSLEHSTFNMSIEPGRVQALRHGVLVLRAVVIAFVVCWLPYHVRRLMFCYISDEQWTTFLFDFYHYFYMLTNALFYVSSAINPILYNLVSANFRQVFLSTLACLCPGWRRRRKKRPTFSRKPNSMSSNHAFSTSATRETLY", "assay": "flow cytometry on cells"}, "[7]": {"target": "mFc-human TfR1 ectodomain (mouse IgG2a Fc fusion) (Homo sapiens, UniProt P02786)", "assay": "SPR"}, "[8]": {"target": "mFc-rhesus monkey TfR1 ectodomain (mouse IgG2a Fc fusion) (Macaca mulatta, UniProt H9Z2T8)", "assay": "SPR"}, "[9]": {"target": "T2, mouse TfR1 fused to EGFP, on …", "assay": "immunostaining of cells or tissue", "remark": "listed apart in the source"}, "[10]": {"target": "T1, human TfR1 fused to EGFP, on …", "assay": "immunostaining of cells or tissue"}, "[11]": {"target": "T3, rhesus monkey TfR1 fused to EGFP, on …", "assay": "immunostaining of cells or tissue", "remark": "listed apart in the source"}}, "note": "Like-named read-outs stand apart in the source and are kept apart here."}
{"binder": "VHH B6 (VHH) VHH: EVQLVESGGGLVQPGGSLRLSCTASGGPIEQYPMGWFRRAPGKERELVASISRSGDGTYYAISSVKGRFTISRDNAENTVFLQMNSLKPDDTAVYYCGAGINPTKIWGQGTQVTVSS", "values": [{"measurement": "Kd", "setting": "[1]", "result": 2.7, "unit": "nM"}, {"measurement": "binding result", "setting": "[2]", "result": "no binding (tested: 50 µg/ml)"}, {"measurement": "binding result", "setting": "[3]", "result": "no binding (tested: 50 µg/ml)"}]}
{"binder": "VHH B8 (VHH) EVQLVESGGGVVQPGGSLRLSCAASGEIFSINFMRWYRQAPGKQREWVAGFTRDGSTNYPDSAKGRFTISRDNAKNTVYLQIDSLKPEDTAVYYCYMLDTWGQGTQVTVSS", "values": [{"measurement": "Kd", "setting": "[1]", "result": 2.4, "unit": "nM"}, {"measurement": "binding result", "setting": "[4]", "result": "binds"}, {"measurement": "Kd", "setting": "[5]", "result": "~30", "unit": "nM"}]}
{"binder": "B8-NT(8-13) (VHH) VHH: EVQLVESGGGVVQPGGSLRLSCAASGEIFSINFMRWYRQAPGKQREWVAGFTRDGSTNYPDSAKGRFTISRDNAKNTVYLQIDSLKPEDTAVYYCYMLDTWGQGTQVTVSS", "values": [{"measurement": "binding result", "setting": "[6]", "result": "binds"}]}
{"binder": "B8V37 (VHH) VHH: EVQLVESGGGVVQPGGSLRLSCAASGEIFSINFMRWYRQAPGKQREWVAGFTRDGSTNYPDSAKGRFTISEDNAKNTVYLQIDSLKPEDTAVYYCYMLRTWGQGTQVTVSS", "values": [{"measurement": "binding result", "setting": "[7]", "result": "binds"}]}
{"binder": "B8V34-NT(8-13) (VHH) VHH: EVQLVESGGGVVQPGGSLRLSCAASGEIRSINFMRWYRQAPGKQREWVAGFTRDGSTNYPDIAKGRFTISRDNAKNTVYLQIDSLKPEDTAVYYCYMLDTWGQGTQVTVSS", "values": [{"measurement": "Kd", "setting": "[7]", "result": 16.9, "unit": "nM"}]}
{"binder": "B8V31 (VHH) EVQLVESGGGVVQPGGSLRLSCAASGEIKSINFMRWYRQAPGKQREWVAGFTRDGSTNYPDSAKGRFTISRDNAKNTVYLQIDSLKPEDTAVYYCYMLDTWGQGTQVTVSS", "values": [{"measurement": "binding result", "setting": "[7]", "result": "binds"}, {"measurement": "binding result", "setting": "[8]", "result": "binds"}]}
{"binder": "B8V40 (VHH) EVQLVESGGGVVQPGGSLRLSCAASGEIKSINFMRWYRQAPGKQREWVSGFTRDGSTNYPDSAKGRFTISRDNAKNTVYLQIDSLKPEDTAVYYCYMLDTWGQGTQVTVSS", "values": [{"measurement": "binding result", "setting": "[7]", "result": "binds"}, {"measurement": "binding result", "setting": "[8]", "result": "binds"}]}
{"binder": "VHH H3 (VHH) VHH: EVQLVESGGGEVQPGGSLKLSCVASGTDFSINFVRWYRQRPGKQREWVAGFTANGDTNYPDSMKGRFTISRDNAKNTVYLQINSLKSEDTAVYYCYMLDNWGQGTQVTVSS", "values": [{"measurement": "binding result", "setting": "[4]", "result": "binds"}, {"measurement": "binding result", "setting": "[9]", "result": "binds"}, {"measurement": "binding result", "setting": "[10]", "result": "binds"}]}
{"binder": "VHH C5 (VHH) EVQLVESGGGVVQPGGSLKLSCVASGTDFSINFIRWYRQAPGKQREFVAGFTATGNTNYADSMKGRFTISRDNTKNAVYLQIDSLKPEDTAVYYCYMLDKWGQGTQVTVSS", "values": [{"measurement": "Kd", "setting": "[1]", "result": 3.1, "unit": "nM"}, {"measurement": "Kd", "setting": "[5]", "result": "~110", "unit": "nM"}, {"measurement": "binding result", "setting": "[11]", "result": "binds"}]}
{"binder": "C5neg-NT(8-13) (VHH) VHH: EVQLVESGGGVVQPGGSLKLSCVASGTDFSINFIRWYRQAPGKQREFVAGFTATGNTNYADSMKGRFTISRDNTKNAVYLQIDSLKPEDTAVYYCAMADKWGQGTQVTVSS", "values": [{"measurement": "binding result", "setting": "[6]", "result": "binds"}]}
{"binder": "C5-NT(8-13) (VHH) VHH: EVQLVESGGGVVQPGGSLKLSCVASGTDFSINFIRWYRQAPGKQREFVAGFTATGNTNYADSMKGRFTISRDNTKNAVYLQIDSLKPEDTAVYYCYMLDKWGQGTQVTVSS", "values": [{"measurement": "Kd", "setting": "[7]", "result": 0.1, "unit": "nM"}, {"measurement": "koff", "setting": "[7]", "result": 0.00016, "unit": "s⁻¹"}, {"measurement": "kon", "setting": "[7]", "result": "1.36e+06", "unit": "M⁻¹ s⁻¹"}]}
{"binder": "C5V30 (VHH) VHH: EVQLVESGGGVVQPGGSLKLSCVASGTDKSINFIRWYRQAPGKQREFVAGFTATGNTNYADSMKGRFTISRDNTKNAVYLQIDSLKPEDTAVYYCYMLDKWGQGTQVTVSS", "values": [{"measurement": "binding result", "setting": "[7]", "result": "binds"}]}
